Experimental findings from paper PMC8557139, “Characterization of a thermotolerant aryl-alcohol oxidase from Moesziomyces antarcticus oxidizing 5-hydroxymethyl-2-furancarboxylic acid” (Applied Microbiology and Biotechnology, 2021) are described below.

In data set [1] the target is T1, MaAAO (Moesziomyces antarcticus, UniProt A0A081CNK9).
T1 construct: gene PAN0_057d6495; expressed with native signal peptide, secreted from Pichia pastoris X-33 (pPICZA); purified; non-covalent FAD; codon-optimised synthetic gene
T1 sequence (A0A081CNK9 20-638): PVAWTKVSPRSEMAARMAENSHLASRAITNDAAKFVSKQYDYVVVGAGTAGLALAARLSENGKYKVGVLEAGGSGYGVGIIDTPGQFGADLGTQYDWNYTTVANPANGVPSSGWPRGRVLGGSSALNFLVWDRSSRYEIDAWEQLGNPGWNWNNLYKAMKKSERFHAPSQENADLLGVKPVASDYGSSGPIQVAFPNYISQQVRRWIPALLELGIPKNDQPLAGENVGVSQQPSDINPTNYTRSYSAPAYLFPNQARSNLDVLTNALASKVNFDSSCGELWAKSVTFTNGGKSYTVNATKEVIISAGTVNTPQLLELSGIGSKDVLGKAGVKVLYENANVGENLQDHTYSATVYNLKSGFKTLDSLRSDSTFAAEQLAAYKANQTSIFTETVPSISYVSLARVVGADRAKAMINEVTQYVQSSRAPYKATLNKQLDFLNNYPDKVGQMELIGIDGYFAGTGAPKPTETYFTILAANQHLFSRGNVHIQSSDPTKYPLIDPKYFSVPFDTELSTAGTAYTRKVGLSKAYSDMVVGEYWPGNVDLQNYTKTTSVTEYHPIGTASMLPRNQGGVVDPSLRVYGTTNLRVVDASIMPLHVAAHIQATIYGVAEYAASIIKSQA
Put plainly: m-anisaldehyde formation at […] nm; substrate excess inhibition fit. The format is biochemical. Conditions: co-substrate O2, 100 mM phosphate pH 6.0, 25 °C.

For data set [2], the target named is T1, MaAAO. Description: UV/Vis spectrum of native and heat-denatured enzyme. The format is binding. The settings on record: non-covalently bound.
The target in data set [3] is T1, MaAAO. Description: coupled […],6-DMP-HRP assay; substrate excess inhibition fit. The format is biochemical. The settings on record: co-substrate O2, potassium phosphate pH 6.0, 25 °C.
Data set [4] has as its target T1, MaAAO. Description: benzaldehyde formation at […] nm; substrate excess inhibition fit. The class given is biochemical. The settings on record: co-substrate O2, 100 mM phosphate pH 6.0, 25 °C.
Substrate in data set [5]: C/C=C/C=C/CO
Description: purified protein. The class given is biochemical, Moesziomyces antarcticus. The settings on record: co-substrate O2, 100 mM phosphate pH 6.0, 25 °C.

Substrate in data set [6]: C=C(C)[C@@H]1CC=C(CO)CC1
Put plainly: purified protein. The format is biochemical, Moesziomyces antarcticus. Conditions: co-substrate O2, 50 mM (text: 100 mM) potassium phosphate pH 6.0, 25 °C.

Substrate in data set [7]: COc1cc(CO)ccc1O
Put plainly: purified protein. The class given is biochemical, Moesziomyces antarcticus. Conditions: co-substrate O2, 100 mM phosphate pH 6.0, 25 °C.

Substrate in data set [8]: COc1ccc(CO)c(OC)c1
Description: purified protein. The class given is biochemical, Moesziomyces antarcticus. Conditions: co-substrate O2, 100 mM phosphate pH 6.0, 25 °C.

Substrate in data set [9]: COc1ccc(CO)cc1O
Description: purified protein. The format is biochemical, Moesziomyces antarcticus. Conditions: co-substrate O2, 100 mM phosphate pH 6.0, 25 °C.

Substrate in data set [10]: COc1ccc(CO)cc1OC
Put plainly: purified protein. The class given is biochemical, Moesziomyces antarcticus. Conditions: co-substrate O2, 100 mM phosphate pH 6.0, 25 °C.

Substrate in data set [11]: Nc1cccc(CO)c1
Description: purified protein. The class given is biochemical, Moesziomyces antarcticus. Conditions: co-substrate O2, 50 mM (text: 100 mM) potassium phosphate pH 6.0, 25 °C, fit with substrate excess inhibition.

Substrate in data set [12]: O=Cc1ccc(CO)o1
Put plainly: purified protein. The format is biochemical, Moesziomyces antarcticus. Conditions: co-substrate O2, 50 mM (text: 100 mM) potassium phosphate pH 6.0, 25 °C.

Substrate in data set [13]: OC/C=C/c1ccccc1
Put plainly: purified protein. The format is biochemical, Moesziomyces antarcticus. Conditions: co-substrate O2, 100 mM phosphate pH 6.0, 25 °C.

Substrate in data set [14]: OCc1ccc2c(c1)OCO2
Description: purified protein. The format is biochemical, Moesziomyces antarcticus. Conditions: co-substrate O2, 100 mM phosphate pH 6.0, 25 °C.

Substrate in data set [15]: OCc1ccccc1
Put plainly: purified protein. The class given is biochemical, Moesziomyces antarcticus. Conditions: co-substrate O2, 100 mM phosphate pH 6.0, 25 °C, fit with substrate excess inhibition.

In the case of `COc1cccc(CO)c1` [m-Anisyl alcohol], the KIU on MaAAO [1] turned out to be 2.09 ± 0.33 mM.
On to `Cc1cc2nc3c(=O)[nH]c(=O)nc-3n(C[C@H](O)[C@H](O)[C@H](O)COP(=O)(O)OP(=O)(O)OC[C@H]3O[C@@H](n4cnc5c(N)ncnc54)[C@H](O)[C@@H]3O)c2cc1C` [FAD], for which the “UV/Vis spectrum of native and heat-denatured enzyme” value on MaAAO [2] is recorded as “confirmed that MaAAO contains a non-covalently bound FAD cofactor”.
`Nc1cccc(CO)c1` [3-Aminobenzyl alcohol] had a KIU on MaAAO [3] of 3.27 ± 0.98 mM.
On to `OCc1ccccc1` [Benzyl alcohol], for which the KIU at MaAAO [4] came out at 1.39 ± 0.35 mM.

B1: MaAAO (Moesziomyces antarcticus) (protein)
chain: PVAWTKVSPRSEMAARMAENSHLASRAITNDAAKFVSKQYDYVVVGAGTAGLALAARLSENGKYKVGVLEAGGSGYGVGIIDTPGQFGADLGTQYDWNYTTVANPANGVPSSGWPRGRVLGGSSALNFLVWDRSSRYEIDAWEQLGNPGWNWNNLYKAMKKSERFHAPSQENADLLGVKPVASDYGSSGPIQVAFPNYISQQVRRWIPALLELGIPKNDQPLAGENVGVSQQPSDINPTNYTRSYSAPAYLFPNQARSNLDVLTNALASKVNFDSSCGELWAKSVTFTNGGKSYTVNATKEVIISAGTVNTPQLLELSGIGSKDVLGKAGVKVLYENANVGENLQDHTYSATVYNLKSGFKTLDSLRSDSTFAAEQLAAYKANQTSIFTETVPSISYVSLARVVGADRAKAMINEVTQYVQSSRAPYKATLNKQLDFLNNYPDKVGQMELIGIDGYFAGTGAPKPTETYFTILAANQHLFSRGNVHIQSSDPTKYPLIDPKYFSVPFDTELSTAGTAYTRKVGLSKAYSDMVVGEYWPGNVDLQNYTKTTSVTEYHPIGTASMLPRNQGGVVDPSLRVYGTTNLRVVDASIMPLHVAAHIQATIYGVAEYAASIIKSQA
notes: expressed with native signal peptide, secreted from Pichia pastoris X-33 (pPICZA); purified; non-covalent FAD; codon-optimised synthetic gene
For the molecule B1, the Michaelis constant (Km) is given as 26.5 ± 1.7 µM in “purified protein [5]”; 23.7 ± 1.7 µM in “purified protein [6]”; 30.0 ± 2.4 µM in “purified protein [7]”; 582 µM in the data set “purified protein [8]”; 60.9 ± 6.7 µM in the data set “purified protein [9]”; 119.0 ± 7.0 µM in the data set “purified protein [10]”. In addition, the Km stood at 1.74 ± 0.24 µM in “purified protein [11]”, 341 ± 20 µM in “purified protein [12]”, 26.9 µM in “purified protein [13]” and 12.2 ± 1.0 µM in “purified protein [14]”. Further, the kcat in the data set “purified protein [5]” came out at 11.5 s⁻¹; in “purified protein [6]”, 9.2 s⁻¹; in “purified protein [7]”, 10.6 s⁻¹; in the data set “purified protein [9]”, 9.6 s⁻¹; in the data set “purified protein [10]”, 11.7 s⁻¹; in the data set “purified protein [11]”, 6.4 s⁻¹. Also, the turnover number (kcat) was 5.4 s⁻¹ in “purified protein [12]”, 8.9 s⁻¹ in “purified protein [13]”, 11.3 s⁻¹ in “purified protein [14]” and 11.2 s⁻¹ in the data set “purified protein [15]”. The kcat/Km in the data set “purified protein [5]” is 435000 M⁻¹ s⁻¹; in the data set “purified protein [6]”, 387000 M⁻¹ s⁻¹; in “purified protein [7]”, 354000 M⁻¹ s⁻¹; in the data set “purified protein [9]”, 158000 M⁻¹ s⁻¹; in the data set “purified protein [10]” it was 98000 M⁻¹ s⁻¹; in “purified protein [11]”, 3.67e+06 M⁻¹ s⁻¹. Also, the kcat/Km worked out at 15700 M⁻¹ s⁻¹ in “purified protein [12]”, 332000 M⁻¹ s⁻¹ in the data set “purified protein [13]”, 926000 M⁻¹ s⁻¹ in the data set “purified protein [14]” and 745000 M⁻¹ s⁻¹ in “purified protein [15]”.

For orientation: Km means the substrate concentration at which the rate is half of its maximum. By kcat is commonly meant the number of substrate molecules converted per active site and unit of time at saturation. In general, kcat/Km refers to the turnover number divided by the Michaelis constant.
